From a protein production outcome set (Wang et al. 2014)

Assay: label from the status in PepcDB records
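Also: failed if final PepcDB status was selected cloned or expressed and not failed if soluble or beyond.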

Sequence: VPGILMCEIFIRANQRSYSVQARSLRLHGVATSVRLEQLFWDVLEEIAARDGMRVTQLIERLYDELVQYRGEAANFTSFLRVCCLRYQVLQAEGRIPADATVPIRSLDAQAVLRGLPANLYDSR
- protein production: not failed

Sequence: MTRKQMKTLVNRLFIISTFLLTSVQSYANFIDISEQQINQYLATKLTEKFRMQDQIGIPGLFQLNYHLHNLTTQIGRTDANKVSLSGIIDGVLLLKGKSYDAQLNLNIDTTPYYDTKTGKLYLKDIRLLNYSASPEKYQDKLQAFLPLLVDGLSKMLNNTPIYTLDENKTQEALLKKFGKAIVIEQGKLSLQTALF
- protein production: failed

Sequence: GSSGSSGMQLEIQVALNFIISYLYNKLPRRRVNIFGEELERLLKKKYEGHWYPEKPYKGSGFRCIHIGEKVDPVIEQASKESGLDIDDVRGNLPQDLSVWIDPFEVSYQIGEKGPVKVLYVDDNSGPSSG
- protein production: not failed

Sequence: MKLKILLLTILTLGAMTVHAQKITGDWKGMLSIPQANMELELIFHITGEGADLSTTMDVPAQGATGIPVEKTSFADGKLTLSAAALQFTFKGTLSGNTIEGNVEQMGFSLPLTLQRFESKLPGNTALPSTEEELKALAALDKGNYKYKVEDYFAKPKASAFQLSPNGKYLSYMEKDDAGKRHVYVKEIATGTVKRAIEEKDELIKGYGWINDERLFFVMDKGGNENYHLFASNIDGSNTRDLTPFDGVKASILNMLKEQKDYMIISMNKNNPQIFEPYKLNVVTGELTQLYENKDAANPIQGYEFDKDGELRGYSRLVNGIESELYYKDLATGEFRLLKKTHWDDTFGVIAFNYASKNKDEAYVLTNLDSDKTRIVLYDLKQNKIIREIFANEDYDVSGLHLSRKRNYEIDLMAYEGEKSVVVPVSATYKELHKLMEKEFKGKEFSVVDYDDDETILLIAVQSDKLYGTYYQFDTRTKKFTLLYDLMPQLKEEDMAEMRPIKFKSRDGLTIHGFITLPKAALEGKKVPLIVNPHGGPQGIRDSWGFNPETQLFASRGYATLQVNFRISGGYGKEFLRAGFKQIGRKAMDDVEDGVRYAISQGWVDPDRIAIYGASHGGYATLMGLVKTPDLYACGVDYVGVSNIYTFFDSFPEYWKPFKEMVKEIWYDLDNPEEAAIAKEVSPFFQIDKINKPLFVVQGANDPRVNINESDQIVTALRARGFEVPYMVKYNEGHGFHREENSMELYRAMLGFFAKHLKK
- protein production: failed

Sequence: MDKQTSPQEEIPELAVAVPQDAAALARALDLEAQTVSTWLTQGLGIVARVGSQIVGLAHLVDDGGHADVTDLALTTPDDADVVAALIGGAEQIATELESRVLVVSGLKASPGPAYHYNSGWVRVLPTRVVVPTAEAMHAFGAALAAQLRAGDIVLASGDLGAGKTTLAQGIGRGLGVDGPVISPTFVLARRHVGSEGRPGLVHVDAYRLGSAAELIDLDLDETMDQAVTLIEWGAGIAEDLGGSHLDVDIRRSGDPADETRVVYLEGFGPRWQDVDLSLLSELPLDTISPDQTGDNN
- protein production: failed

Sequence: MIGWTLGQYFFIRYLKMTCYFLGGIFVLALLIDFTENSGRLSSLPRYTAKDAFLISVLRIPFIMQQLIPFIALFSAMAMLISLNRKSELVVTRSIGISAWQFLMPACFGAFLFGLFSILLVNPLAAWGFSQAERMMTEWRSKNNNVLTSLHNTRILWLTQRTHSGRTTIGAKSITDQGLSLIDATFVQYNDNATIKNWINSRKATLINGAWLLTDGTIYKIGHPPEKFSELQIQTTLKPEFLTERLVNPATIPFYQLPTKIMIARSFGYSANNFDMYLQSLIALPALLIAMTLIAAVVSLNFTRFGQSKILILGGVIAGFSLYVISILVQAFGNAGYIPPIIAAWTPVFIALFLGISFLLHKEDG
- protein production: failed

Sequence: MFRLEDFNFHNKTVFLRVDLNSPMKDGKIISDARFKAVLPTIRYLIESGAKVVIGTHQGKPYSEDYTTTEEHARVLSELLDQHVEYIEDIFGRYAREKIKELKSGEVAILENLRFSAEEVKNKPIEECEKTFLVKKLSKVIDYVVNDAFATAHRSQPSLVGFARIKPMIMGFLMEKEIEALMRAYYSKDSPKIYVLGGAKVEDSLKVVENVLRRERADLVLTGGLVANVFTLAKGFDLGRKNVEFMKKKGLLDYVKHAEEILDEFYPYIRTPVDFAVDYKGERVEIDLLSENRGLLHQYQIMDIGKRTAEKYREILMKARIIVANGPMGVFEREEFAIGTVEVFKAIADSPAFSVLGGGHSIASIQKYGITGITHISTGGGAMLSFFAGEELPVLRALQISYEKFKEVVK
- protein production: not failed

Sequence: MKGYGEMAKNNPTRITAEPGKQEIIITREFDAPRELVFKAFTDPDLYTQWIGPRGFTTALKIFEPKNGGSWQYIQKDPEGNEYAFHGVNHDVTEPERIISTFEFEGLPEKGHVILDTARFEALPGDRTKLTSHSVFQTIEDRDGMLQSGMEEGINDSYERLDELLEKMKKLEHHHHHH
- protein production: not failed

Sequence: MTMPHAFSRQPATHRSGRFPRSRALLLASLLAAGLASLPAWAAAPATRTAQAAPEGSSRAAVQLEKSRPRGNLLATDRTDLPAVPLSEDIMYRVLASEVSLQRGLVEPAYRTYLGLAQDTRDPRFAQRATEIAFLTRSPSQALTAARLWVELAPTSMPARQVQQLLMVATGQWSEVEPMLQAQLNKVSPGQRAEAILQLQQQMSKSNDPAGAVSALQRLTTHDAQRPETHLALARAKVVAKDNTGALSELDTALKLRPGYEDAAILAAELRADSDPDAAISGLRTFLKAAPASIDGHLALARMYLVRNQNDQARAEFEALRKIAPTDPRIPLALGLLNLQQRQYDSAEQYLKEYVAQAAKSPSLSPEPGYQGLAQVAEEKRDYAGAITWLDKIAGASNGDGDGQVALAAGIKRAQLLGKLRRIDEAQQAFDELIADTEDVPDGPRRQALMDGIRQAEVGMLMDAKAYGRARARVNDLLRTSPDSVEYTYQLSMLEEHDGHYDNMETLLRKVIDLRPGQAIGYNALGYSLADRNIRLQEAQELLEKAVSLAPDDPYIADSLGWVKYRRGDLPAATDILRKAWAAAPQAEIGAHLGEVLWQSGKQDDARKVWTEAAKLDINDTTLRETLHRFSQPLPDAPTSAN
- protein production: failed

Sequence: MLMDGHTHTELCPHGSGEATEKMIQRAIQLGFQRYCITEHAPLPPAFRDQYEGTPAGYTEASLRENQVADYLALANGLKTKYAGQIEISVGFEVDFLPEHVAWTRDFLNTYGPRTQESILSVHFMRGLRQHFWCVDMSTDDFAAGFGQWLKTPQRVFEQYYQTVLASVQADLGPYAPQRIGHMSLVRKYQDYFGLTEPLDVHNLQLVDQTLALVKQQRRQLDLNLAGLYKPYCNDFYPGEQILQRAQKLDIPLVYGSDAHDIASVGRGYHLIKKLIEGLEHHHHHH
- protein production: failed

Sequence: MRDATYPQLWAAVRAARKAGRTLESVKPAADQFQVKHNGDIVTEADRTVEETILAELSGQFPVHTVVSEESAPEFTTKPRWIIDPIDGTTNFLNGIPHYSISIAFEGAGEPDVGIVYHVPSETMYTAIEGGGAYANGQPLSLSATTELSEALIVTGFDTASMQAQEYDHFRTILNVTQGVRRFGSAAGELAMVAAGQFDAFFERQLSVWDTAAGVKIVEEAGGEVTRIKALDGKNSEMVLASNEAIHQDLVALVSAGTVPKMDGQ
- protein production: failed

Sequence: MSGPEAEQQSVVLYDIEDKPPLGKAIPLGIQHVLAMFLGNVAPPLILAGAVGSVTGETTFLVQMALIVAGIATIVQAYPVGPVGARLPVVMGTSFAFLGPLIGIGNQFGIAAVFGASLLAAPVEVIMGVSFDRFRRFFPPLVTGIVVMLIGLTLIPTGMNYAAGASAGPSAEGYGSFVNLGLAGLVLIVTVGLNQFFEGFLRVISVFVGIIVGYLAALALGVVDLSAVAAAGWVTVPVPLKYGLAFEPSAVVTVAFLYIITGMETIGDISGTVSATGRNATREEIRGGLVADGVMSVFGAVFNALPNTSFSQNVGLVNFTGVASRYVAGIGGVVLLALGFIPKVGAVVSAMPDAVLGGGALILFAMIFSSGARLITQNVELDHRNSTILAMSMALGLGVAFRPEILQNFPSEVQTLFGSALVTGGMAALILNIVFPGGSVGTGPTEYTAGLEPDPVETGAGAPPVDDD
- protein production: failed

Sequence: MAAAAATAVGPGAGSAGVAGPGGAGPCATVSVFPGARLLTIGDANGEIQRHAEQQALRLEVRAGPDAAGIALYSHEDVCVFKCSVSRETECSRVGRQSFIITLGCNSVLIQFATPHDFCSFYNILKTCRGHTLERSVFSERTEESSAVQYFQFYGYLSQQQNMMQDYVRTGTYQRAILQNHTDFKDKIVLDVGCGSGILSFFAAQAGARKIYAVEASTMAQHAEVLVKSNNLTDRIVVIPGKVEEVSLPEQVDIIISEPMGYMLFNERMLESYLHAKKYLKPSGNMFPTIGDVHLAPFTDEQLYMEQFTKANFWYQPSFHGVDLSALRGAAVDEYFRQPVVDTFDIRILMAKSVKYTVNFLEAKEGDLHRIEIPFKFHMLHSGLVHGLAFWFDVAFIGSIMTVWLSTAPTEPLTHWYQVRCLFQSPLFAKAGDTLSGTCLLIANKRQSYDISIVAQVDQTGSKSSNLLDLKNPFFRYTGTTPSPPPGSHYTSPSENMWNTGSTYNLSSGVAVAGMPTAYDLSSVIAGGSSVGHNNLIPLANTGIVNHTHSRMGSIMSTGIVQGNRVAGPWAGDLPPGLRTRSSYQWGPGRLRGHAGSSVPMTCPTGSSGAQGGGGSSSAHYAVNNQFTMGGPAISMASPMSIPTNTMHYGS
- protein production: failed

Sequence: MSPAAECRRQLSLDSSEAIGLQPLMQRASNTAGVFVMIDTQLEQQLQGFSALQSLFEADFDVRRLFTAEDALEAGEYGRLTVEALRNDPAAGQLFEERWVLPELNLSSLLQLPEGSFGRVYAEMLVGNGFDPDYVIQIAPVEGDDDLSYFKRLWRTTHDFHHIATGLGTDPRGEVALQAFLMGQLPIPFSVVVVSMGLLRTSVAQPDRIPALVDAISDAFRRGRHSPQLLLAQRWDHFWALPVAEVRQQLQIADLEHHHHHH
- protein production: failed

Sequence: IPLGIYEKALPAGECWLERLKLAKALGFDFVEMSLDETDARLARLDWSPEQRLALVKAVAETGVRVPSMCLSAHRRFPLGSEDDAVRHQGLEIMRKAIQLAQDVGIRVIQLAGYDVYYQQANDETRRRFRDGLKQSVEMASRAQVTLAMEIMDYPLMNSISKALGYAHYLNNPWFQLYPDIGNLSAWDNDVQMELKAGSGHIVAVHVKDTKPGVFKNVPFGEGVVDFERCFETLKQTGYCGPYLIEMWSETSADPLAEVAKARDWVKARMARAGLM
- protein production: not failed

Sequence: DETQVLATVTQELANLFQLESCYIELYNTDCTAVSVVCEYAANQPTYQGLTRQIADFSEIYQPLLQKQHFQTIEIVPGWHPQLLVITQLACPIFDAQGMLGNLWLIRPIQQMLSQSEICLVQTLANLCAIAIRQAKLDATNQARLKKLEQRESLTNKFLRKLSQELRTPITSISLAAQTLETVLSPTI
- protein production: failed

Sequence: MKYLPLYPILARYPFLRIASRVFSFNIEDELRKFLDTVEAAKRIVDKAIDGRVEYDRFTDESEFFCLGCEENCYDCQKRGTLEGCDLCMGCFENCSLYYPREAVERFYTNAKLSLLTYIASRMIVSAMEDWVRMRYAVNEASYYSRLLREDVEESGKEPIVRLVAIDLGAKLKGWKMHVSTFVRVSARIKDDKWRLVNRKLRNGWVETTKAEVLRGLEELLRMKLFEKVPVSEAVSEAVRELSRKAKRESEKFAMDLGEVDLNCLPPCMREILSELQRGMNIPHTARFAITSFLLNIGMTVDEIIALFKSAPDFDDEKTRYQVEHIAGERGKGAEYTSPSCDTMRTYSNCVADCRVSHPLIYYKKCKSKSLEHHHHHH
- protein production: not failed

Sequence: MNSRLGTTASSITRSALPTTVVWDPAMTAYNFGPGHPMAPQRLELTARLAESLGLFNHNHVAVEAPTVATDVELFSVHSRDYVEAVRRVSADPSAPEEERGLGTEDDPAFAGMHEASARLAGGSLLAAETILSGQAVRAVNFSGGMHHAARERASGFCVYNDVALAIQKLLDGGVQRVVSIDVDAHHGDGTQSIFWNDPRVMTISLHETGLTLFPGTGFANETGGPDAPGTAVNVALPAFTGDAAWLRAFHAVVPQLVGAFQPEVIVSQHGCDSHRDDPLTHLNLSVDGQREAASAVAGLAARYCDNRWIATGGGGYDVTGVVPRAWSHLIGMVTQRPVPLKTPVPEAWRSYVKETYGVWAPESMSDDVDVWWRSWEVGYNPADEVDRTVIATRKEIFPLYGLDPWFD
- protein production: failed
